The record followed here is patent US20030203447A1 (XOMA TECHNOLOGY, published 2003).

In assay [1] the target is T1, Ep-CAM on the surface of HT-29 human colorectal carcinoma cells (human, UniProt P16422 24-314).
T1 construct: also called Epithelial Cell Adhesion Molecule; Ep-CAM-expressing HT-29 cells
T1 sequence: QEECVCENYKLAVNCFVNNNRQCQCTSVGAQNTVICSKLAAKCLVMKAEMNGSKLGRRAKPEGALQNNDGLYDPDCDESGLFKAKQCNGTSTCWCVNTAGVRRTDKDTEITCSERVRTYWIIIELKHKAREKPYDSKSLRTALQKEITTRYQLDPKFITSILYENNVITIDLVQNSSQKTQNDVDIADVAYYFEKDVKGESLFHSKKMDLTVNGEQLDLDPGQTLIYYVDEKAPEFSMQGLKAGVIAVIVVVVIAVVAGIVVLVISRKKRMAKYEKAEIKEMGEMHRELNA
Nature of the assay: competition with 125I-labelled chimeric ING-1 on HT-29 cells. An excerpt:
(§1) Vectors constructed according to Example 6 encoding human engineered ING-1 light and heavy chain genes, for example, pING1937 (low risk human engineered ING-1) and pING1944 (low plus moderate risk human engineered ING-1) were linearized by XbaI and used to transfect serum-free adapted CHO—K1 followed by selection of G418-resistant transfectants. Protein was purified from shake flask culture supernatants by passage over a protein A column. To evaluate the binding activity of the produced immunoglobulin polypeptides, competition binding assays with the human carcinoma cell line HT-29 were performed. This colorectal carcinoma cell line expresses a molecule known as Ep-CAM on its surface. Ep-CAM is recognized by immunoglobulin polypeptides having the antigen binding specificity of the mouse-human chimeric ING-1 antibody produced by cell line HB 9812 as deposited with the ATCC.
(§2) HTG29 cells were grown to confluency (˜2×10⁵ cells/well) in 96 well plates. Mouse-human chimeric ING-1 was labeled with Na¹²⁵I (Iodo-gen®, Pierce). The competition conditions included in a 100 μl assay volume, 0.1 nM labeled mouse-human chimeric ING-1, 2-fold serial dilutions of unlabeled immunoglobulin polypeptides, for example, as produced by cells transfected with pING1937 and pING1944. […] Labeled cells were removed with NaOH and counted. […]

For assay [2], the target named is T1, Ep-CAM on the surface of HT-29 human …. Briefly: competition binding on HT-29 cells.
From the text: as §1, §2

The target is the same in assay [3]. Briefly: competition with iodinated low risk ING-1 on HT-29 cells.

Numbering of substitutions follows the chain as printed.

B1: human engineered (low risk) ING-1 (antibody, human IgG1, kappa)
VL: DIVMTQSALSNPVTLGESGSISCRSSKSLLHSNGITYLYWYLQKPGQSPQLLIYQMSNRASGVPDRFSSSGSGTDFTLKISRVEAEDVGVYYCAQNLELPRTFGQGTKLEMKRTVAAPSVFIFPPSDEQLKSGTASVVCLLNNFYPREAKVQWKVDNALQSGNSQESVTEQDSKDSTYSLSSTLTLSKADYEKHKVYACEVTHQGLSSPVTKSFNRGEC
VH: not shown
notes: It carries 6 low risk changes in VL and 13 low risk changes in VH; also called ING-1 (heMab); low risk human engineered ING-1
Regarding B1, in assay [1], the binding result is listed as “binds”.

B2: human engineered (low plus moderate risk) ING-1 (antibody, human IgG1, kappa)
VL: B1 VL with A8P, N11L, L15P, S18P
VH: not shown
notes: Whole IgG built like pING1937 (human kappa and gamma-1 constant regions); It carries 10 low plus moderate risk changes in VL and 20 in VH; also called product of pING1944
For B2, the binding result in assay [2] is “binds”.

B3: modified ING-1 with low plus moderate risk light chain and low risk heavy chain (antibody, human IgG1, kappa)
VL: B1 VL with A8P, N11L, L15P, S18P
VH: not shown
On to B3, for which the binding result in assay [3] was “binds”.

B4: modified ING-1 with low risk light chain and low plus moderate risk heavy chain (antibody, human IgG1, kappa)
VL: B1 VL
VH: not shown
On to B4, for which, in assay [3], the binding result was “binds”.

B5: mouse-human chimeric ING-1 (antibody, human IgG1, kappa, V domains shown)
VH: QIQLVQSGPELKKPGETVKISCKASGYTFTKYGMNWVKQAPGKGLKWMGWINTYTEEPTYGDDFKGRFAFSLETSASTANLQINNLKSEDTATYFCARFGSAVDYWGQGTSVTVSS
VL: DIVMTQAAFSNPVTLGTSGSISCRSSKSLLHSNGITYLYWYLQKPGQSPQLLIYQMSNLASGVPDRFSSSGSGTDFTLRISRVEAEDVGVYYCAQNLELPRTFGGGTKLEMKR
notes: Variable regions of mouse antibody Br-1 with human constant regions; also called mouse-human chimeric ING-1 antibody produced by cell line HB 9812
For the molecule B5, the binding result in assay [1] was “binds”.
